Data reported in patent publication US20240352113A1 (JIANGSU HENGRUI PHARMACEUTICALS, published 2024).

Experiments:
Assay in all cases: cell-based or functional assay
[1] = biological target: T1, human ANGPTL3(17-170)-Flag-His (human, UniProt Q9Y5C1 17-170)
T1 sequence: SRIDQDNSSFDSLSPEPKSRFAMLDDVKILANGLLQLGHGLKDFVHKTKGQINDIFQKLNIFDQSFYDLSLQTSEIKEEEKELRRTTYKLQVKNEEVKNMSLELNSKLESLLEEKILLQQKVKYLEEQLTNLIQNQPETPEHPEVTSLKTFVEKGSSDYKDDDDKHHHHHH

[2] = biological target: T2, mouse ANGPTL3(17-455)-His (mouse, UniProt Q9R182 17-455, biotin-labeled in the ELISA and HTRF assays (sites not given))
T2 sequence: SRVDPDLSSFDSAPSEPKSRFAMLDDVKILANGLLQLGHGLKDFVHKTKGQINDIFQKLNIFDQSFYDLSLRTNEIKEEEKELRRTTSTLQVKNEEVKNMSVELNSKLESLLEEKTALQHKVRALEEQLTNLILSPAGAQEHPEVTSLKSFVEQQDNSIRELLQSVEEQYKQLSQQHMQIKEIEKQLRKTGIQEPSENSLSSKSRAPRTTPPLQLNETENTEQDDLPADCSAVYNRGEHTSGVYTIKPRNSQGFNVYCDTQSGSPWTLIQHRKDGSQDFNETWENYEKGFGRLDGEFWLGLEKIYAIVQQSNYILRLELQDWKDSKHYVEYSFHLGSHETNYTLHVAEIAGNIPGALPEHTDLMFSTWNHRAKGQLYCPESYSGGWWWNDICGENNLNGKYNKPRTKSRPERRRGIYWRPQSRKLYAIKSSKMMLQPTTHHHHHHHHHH

[3] = biological target: T3, cynomolgus monkey ANGPTL3(17-460)-His (cynomolgus monkey, UniProt Q9Y5C1 17-460 (human entry), biotin-labeled in the ELISA and HTRF assays (sites not given))
T3 chain: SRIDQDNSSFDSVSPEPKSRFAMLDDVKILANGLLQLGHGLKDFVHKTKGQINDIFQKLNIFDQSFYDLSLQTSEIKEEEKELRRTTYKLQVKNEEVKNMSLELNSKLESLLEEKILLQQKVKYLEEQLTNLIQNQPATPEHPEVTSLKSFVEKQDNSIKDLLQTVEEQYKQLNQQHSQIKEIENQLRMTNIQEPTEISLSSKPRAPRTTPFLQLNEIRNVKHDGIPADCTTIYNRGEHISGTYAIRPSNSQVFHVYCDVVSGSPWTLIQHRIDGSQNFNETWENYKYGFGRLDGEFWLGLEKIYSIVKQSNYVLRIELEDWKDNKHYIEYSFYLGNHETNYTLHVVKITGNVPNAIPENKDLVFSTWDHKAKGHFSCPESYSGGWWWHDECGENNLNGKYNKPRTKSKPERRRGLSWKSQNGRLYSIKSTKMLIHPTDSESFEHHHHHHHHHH

rat ANGPTL3(17-455)-His = biological target: T4, rat ANGPTL3(17-455)-His (rat, biotin-labeled in the ELISA and HTRF assays (sites not given))
T4 chain: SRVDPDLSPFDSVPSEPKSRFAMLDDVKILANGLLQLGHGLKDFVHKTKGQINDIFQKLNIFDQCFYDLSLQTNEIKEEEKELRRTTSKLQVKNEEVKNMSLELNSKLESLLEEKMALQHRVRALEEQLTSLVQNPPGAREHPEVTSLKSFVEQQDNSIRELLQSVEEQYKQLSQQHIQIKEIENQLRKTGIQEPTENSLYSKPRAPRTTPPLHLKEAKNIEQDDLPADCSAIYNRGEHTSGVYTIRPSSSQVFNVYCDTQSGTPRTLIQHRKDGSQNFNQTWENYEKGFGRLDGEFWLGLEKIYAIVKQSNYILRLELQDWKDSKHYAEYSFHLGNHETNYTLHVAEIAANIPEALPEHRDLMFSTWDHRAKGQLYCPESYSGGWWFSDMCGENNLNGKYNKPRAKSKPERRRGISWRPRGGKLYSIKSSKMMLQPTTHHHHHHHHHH

B1: P8BG (antibody, human IgG4 S228P, kappa, V domains shown)
VH: QVQLVQSGAEVKKPGASVKVSCKASGYTFTSYDINWVRQAPGQGLEWVGLINPREDSTSYAQKFQGRVTMTRDTSTSTMYMELSSLRSEDTAVYFCARDLGSIREVLYYGMDVWGQGTTVTVSS
VL: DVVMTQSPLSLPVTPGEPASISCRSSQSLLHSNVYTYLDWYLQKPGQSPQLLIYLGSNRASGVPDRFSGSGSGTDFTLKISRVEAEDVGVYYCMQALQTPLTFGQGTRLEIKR
[1]
  IC50 (nM), activity in blocking the inhibition of LPL by ANGPTL3 (bovine LPL enzyme activity assay): 75.3 nM
[2]
  IC50 (nM), activity in blocking the inhibition of LPL by ANGPTL3 (bovine LPL enzyme activity assay): 41.5 nM
[3]
  IC50 (nM), activity in blocking the inhibition of LPL by ANGPTL3 (bovine LPL enzyme activity assay): 53.6 nM
Rat ANGPTL3(17-455)-His
  IC50 (nM), activity in blocking the inhibition of LPL by ANGPTL3 (bovine LPL enzyme activity assay): 132 nM
